The results in this text go back to US20230220021A1 (UNIVERSITY OF COPENHAGEN, published 2023).

Bridges are numbered along the chain shown (N, C = ends). [ ]: non-standard residue; d: D form.

B1: cyclic nNOS β-hairpin peptide N-Me-K118 (peptide)
peptide: THLETTFTGDGTPXTIRVTQPGQ
modifications: cyclic; D-Pro; N-methyl Lys 118
B2: cyclic nNOS β-hairpin peptide N-Me-T105 (peptide)
peptide: XHLETTFTGDGTPKTIRVTQPGQ
modifications: cyclic; D-Pro; N-methyl Thr 105
B3: cyclic nNOS β-hairpin peptide N-Me-T123 (peptide)
peptide: THLETTFTGDGTPKTIRVXQPGQ
modifications: cyclic; D-Pro; N-methyl Thr 123
B4: Cyclo-(Ac105…124pGC), Thioether (peptide)
peptide: XHLETTFTGDGTPKTIRVTQPGC
modifications: cyclic by thioether (N-terminal acetyl to Cys); D-Pro
notes: also called thioether bridged analogue
B5: Cyclo-(C105THLETTFTGDGTPKTIRVTQ124pG), NCL (peptide)
peptide: cyclo(CTHLETTFTGDGTPKTIRVTQ[dP]G)
notes: also called NCL peptide
B6: Cyclo-(105THLETTFTGDGTPKTIRVTQ124pG(Dγ)), Asp side-chain lactam (peptide)
peptide: THLETTFTGDGTPKTIRVTQ[dP]GD-NH2
modifications: lactam N-23
B7: Cyclo-(105THLETTFTGDGTPKTIRVTQ124pG(Eγ)), Glu side-chain lactam (peptide)
peptide: THLETTFTGDGTPKTIRVTQ[dP]GE-NH2
modifications: lactam N-23
B8: cyclic nNOS β-hairpin peptide V122A (peptide)
peptide: cyclo(THLETTFTGDGTPKTIRATQ[dP]GQ)
SMILES: CC[C@H](C)[C@@H]1NC(=O)[C@H]([C@@H](C)O)NC(=O)[C@H](CCCCN)NC(=O)[C@@H]2CCCN2C(=O)[C@H]([C@@H](C)O)NC(=O)CNC(=O)[C@H](CC(=O)O)NC(=O)CNC(=O)[C@H]([C@@H](C)O)NC(=O)[C@H](Cc2ccccc2)NC(=O)[C@H]([C@@H](C)O)NC(=O)[C@H]([C@@H](C)O)NC(=O)[C@H](CCC(=O)O)NC(=O)[C@H](CC(C)C)NC(=O)[C@H](Cc2c[nH]cn2)NC(=O)[C@H]([C@@H](C)O)NC(=O)[C@H](CCC(N)=O)NC(=O)CNC(=O)[C@H]2CCCN2C(=O)[C@H](CCC(N)=O)NC(=O)[C@H]([C@@H](C)O)NC(=O)[C@H](C)NC(=O)[C@H](CCCNC(=N)N)NC1=O
B9: cyclic nNOS β-hairpin peptide T123A (peptide)
peptide: cyclo(THLETTFTGDGTPKTIRVAQ[dP]GQ)
SMILES: CC[C@H](C)[C@@H]1NC(=O)[C@H]([C@@H](C)O)NC(=O)[C@H](CCCCN)NC(=O)[C@@H]2CCCN2C(=O)[C@H]([C@@H](C)O)NC(=O)CNC(=O)[C@H](CC(=O)O)NC(=O)CNC(=O)[C@H]([C@@H](C)O)NC(=O)[C@H](Cc2ccccc2)NC(=O)[C@H]([C@@H](C)O)NC(=O)[C@H]([C@@H](C)O)NC(=O)[C@H](CCC(=O)O)NC(=O)[C@H](CC(C)C)NC(=O)[C@H](Cc2c[nH]cn2)NC(=O)[C@H]([C@@H](C)O)NC(=O)[C@H](CCC(N)=O)NC(=O)CNC(=O)[C@H]2CCCN2C(=O)[C@H](CCC(N)=O)NC(=O)[C@H](C)NC(=O)[C@H](C(C)C)NC(=O)[C@H](CCCNC(=N)N)NC1=O
B10: cyclic nNOS β-hairpin peptide T119A (peptide)
peptide: cyclo(THLETTFTGDGTPKAIRVTQ[dP]GQ)
SMILES: CC[C@H](C)[C@@H]1NC(=O)[C@H](C)NC(=O)[C@H](CCCCN)NC(=O)[C@@H]2CCCN2C(=O)[C@H]([C@@H](C)O)NC(=O)CNC(=O)[C@H](CC(=O)O)NC(=O)CNC(=O)[C@H]([C@@H](C)O)NC(=O)[C@H](Cc2ccccc2)NC(=O)[C@H]([C@@H](C)O)NC(=O)[C@H]([C@@H](C)O)NC(=O)[C@H](CCC(=O)O)NC(=O)[C@H](CC(C)C)NC(=O)[C@H](Cc2c[nH]cn2)NC(=O)[C@H]([C@@H](C)O)NC(=O)[C@H](CCC(N)=O)NC(=O)CNC(=O)[C@H]2CCCN2C(=O)[C@H](CCC(N)=O)NC(=O)[C@H]([C@@H](C)O)NC(=O)[C@H](C(C)C)NC(=O)[C@H](CCCNC(=N)N)NC1=O
B11: cyclic nNOS β-hairpin peptide ΔT112 (peptide)
peptide: cyclo(THLETTFGDGTPKTIRVTQ[dP]GQ)
SMILES: CC[C@H](C)[C@@H]1NC(=O)[C@H]([C@@H](C)O)NC(=O)[C@H](CCCCN)NC(=O)[C@@H]2CCCN2C(=O)[C@H]([C@@H](C)O)NC(=O)CNC(=O)[C@H](CC(=O)O)NC(=O)CNC(=O)[C@H](Cc2ccccc2)NC(=O)[C@H]([C@@H](C)O)NC(=O)[C@H]([C@@H](C)O)NC(=O)[C@H](CCC(=O)O)NC(=O)[C@H](CC(C)C)NC(=O)[C@H](Cc2c[nH]cn2)NC(=O)[C@H]([C@@H](C)O)NC(=O)[C@H](CCC(N)=O)NC(=O)CNC(=O)[C@H]2CCCN2C(=O)[C@H](CCC(N)=O)NC(=O)[C@H]([C@@H](C)O)NC(=O)[C@H](C(C)C)NC(=O)[C@H](CCCNC(=N)N)NC1=O
B12: cyclic nNOS β-hairpin peptide ΔD114 (peptide)
peptide: cyclo(THLETTFTGGTPKTIRVTQ[dP]GQ)
SMILES: CC[C@H](C)[C@@H]1NC(=O)[C@H]([C@@H](C)O)NC(=O)[C@H](CCCCN)NC(=O)[C@@H]2CCCN2C(=O)[C@H]([C@@H](C)O)NC(=O)CNC(=O)CNC(=O)[C@H]([C@@H](C)O)NC(=O)[C@H](Cc2ccccc2)NC(=O)[C@H]([C@@H](C)O)NC(=O)[C@H]([C@@H](C)O)NC(=O)[C@H](CCC(=O)O)NC(=O)[C@H](CC(C)C)NC(=O)[C@H](Cc2c[nH]cn2)NC(=O)[C@H]([C@@H](C)O)NC(=O)[C@H](CCC(N)=O)NC(=O)CNC(=O)[C@H]2CCCN2C(=O)[C@H](CCC(N)=O)NC(=O)[C@H]([C@@H](C)O)NC(=O)[C@H](C(C)C)NC(=O)[C@H](CCCNC(=N)N)NC1=O
B13: cyclic nNOS β-hairpin peptide ΔT116 (peptide)
peptide: cyclo(THLETTFTGDGPKTIRVTQ[dP]GQ)
SMILES: CC[C@H](C)[C@@H]1NC(=O)[C@H]([C@@H](C)O)NC(=O)[C@H](CCCCN)NC(=O)[C@@H]2CCCN2C(=O)CNC(=O)[C@H](CC(=O)O)NC(=O)CNC(=O)[C@H]([C@@H](C)O)NC(=O)[C@H](Cc2ccccc2)NC(=O)[C@H]([C@@H](C)O)NC(=O)[C@H]([C@@H](C)O)NC(=O)[C@H](CCC(=O)O)NC(=O)[C@H](CC(C)C)NC(=O)[C@H](Cc2c[nH]cn2)NC(=O)[C@H]([C@@H](C)O)NC(=O)[C@H](CCC(N)=O)NC(=O)CNC(=O)[C@H]2CCCN2C(=O)[C@H](CCC(N)=O)NC(=O)[C@H]([C@@H](C)O)NC(=O)[C@H](C(C)C)NC(=O)[C@H](CCCNC(=N)N)NC1=O
B14: cyclic nNOS β-hairpin peptide AlloT105 (peptide)
peptide: XHLETTFTGDGTPKTIRVTQPGQ
modifications: cyclic; D-Pro; allo-Thr at 105
B15: cyclic nNOS β-hairpin peptide AlloT119 (peptide)
peptide: THLETTFTGDGTPKXIRVTQPGQ
modifications: cyclic; D-Pro; allo-Thr at 119
B16: cyclic nNOS β-hairpin peptide AlloT110 (peptide)
peptide: THLETXFTGDGTPKTIRVTQPGQ
modifications: cyclic; D-Pro; allo-Thr at 110
B17: cyclic nNOS β-hairpin peptide N-Me-I120 (peptide)
peptide: THLETTFTGDGTPKTXRVTQPGQ
modifications: cyclic; D-Pro; N-methyl Ile 120
B18: cyclic nNOS β-hairpin peptide N-Me-T119 (peptide)
peptide: THLETTFTGDGTPKXIRVTQPGQ
modifications: cyclic; D-Pro; N-methyl Thr 119
B19: cyclic nNOS β-hairpin peptide N-Me-G113 (peptide)
peptide: THLETTFTXDGTPKTIRVTQPGQ
modifications: cyclic; D-Pro; N-methyl Gly 113
B20: cyclic nNOS β-hairpin peptide N-Me-T110 (peptide)
peptide: THLETXFTGDGTPKTIRVTQPGQ
modifications: cyclic; D-Pro; N-methyl Thr 110
B21: cyclic nNOS β-hairpin peptide N-Me-D114 (peptide)
peptide: THLETTFTGXGTPKTIRVTQPGQ
modifications: cyclic; D-Pro; N-methyl Asp 114
B22: cyclic nNOS β-hairpin peptide N-Me-Q124 (peptide)
peptide: THLETTFTGDGTPKTIRVTXPGQ
modifications: cyclic; D-Pro; N-methyl Gln 124
B23: cyclic nNOS β-hairpin peptide N-Me-G115 (peptide)
peptide: THLETTFTGDXTPKTIRVTQPGQ
modifications: cyclic; D-Pro; N-methyl Gly 115
B24: cyclic nNOS β-hairpin peptide N-Me-T112 (peptide)
peptide: THLETTFXGDGTPKTIRVTQPGQ
modifications: cyclic; D-Pro; N-methyl Thr 112
B25: cyclic nNOS β-hairpin peptide N-Me-R121 (peptide)
peptide: THLETTFTGDGTPKTIXVTQPGQ
modifications: cyclic; D-Pro; N-methyl Arg 121
B26: cyclic nNOS β-hairpin peptide N-Me-V122 (peptide)
peptide: THLETTFTGDGTPKTIRXTQPGQ
modifications: cyclic; D-Pro; N-methyl Val 122
B27: cyclic nNOS β-hairpin peptide N-Me-T116 (peptide)
peptide: THLETTFTGDGXPKTIRVTQPGQ
modifications: cyclic; D-Pro; N-methyl Thr 116
B28: cyclic nNOS β-hairpin peptide pT112 (peptide)
peptide: THLETTFXGDGTPKTIRVTQPGQ
modifications: cyclic; D-Pro; phospho-Thr 112
B29: cyclic nNOS β-hairpin peptide pT116 (peptide)
peptide: THLETTFTGDGXPKTIRVTQPGQ
modifications: cyclic; D-Pro; phospho-Thr 116
B30: cyclic nNOS β-hairpin peptide pT123 (peptide)
peptide: THLETTFTGDGTPKTIRVXQPGQ
modifications: cyclic; D-Pro; phospho-Thr 123
B31: cyclic nNOS β-hairpin peptide pT105 (peptide)
peptide: XHLETTFTGDGTPKTIRVTQPGQ
modifications: cyclic; D-Pro; phospho-Thr 105

The Ki is the dissociation constant of the complex between target and ligand, obtained from inhibition or displacement. Read a low Ki as tighter binding.

T1 sequence (P78352 160-246): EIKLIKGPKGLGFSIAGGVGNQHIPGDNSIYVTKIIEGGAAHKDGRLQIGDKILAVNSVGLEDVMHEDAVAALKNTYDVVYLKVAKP

The first experiment concerns the target T1, (7× His)-PSD-95-PDZ2 wild type (UniProt P78352 160-246).
T1 construct: domain: PDZ2; recombinant from E. coli; also called PSD-95-PDZ2 WT; not shown: 7x His tag
Nature of the experiment: FP competition.
In turn, B1 showed a fold improved affinity of 2 fold. Regarding B2, the “fold decrease in affinity” value amounted to 5 fold. Molecule B3 yielded a fold improved affinity of 2 fold.

The next experiment addresses T1, (7× His)-PSD-95-PDZ2 wild type. Nature of the experiment: FP competition. The source holds these as a separate data set.
Protocol: (§1) Fluorescence polarization (FP). FP assays were performed in a 384-well plate format. Fluorescence polarization was measured using a Safire 2 plate reader. The instrument Z-factor was optimized for each assay. The G-factor was calibrated to an initial milli polarization value of 20. […] Every measurement was performed in NaPI 50 mM, 50 mM NaCl and 1% BSA at pH 7.2, 25° C. […] The curves were done in triplicates. Then, the polarization was fitted into a one-site binding model using Prism software 8.0 (GraphPad), from which the Kd can be measured. […] The mili polarization (mP) values were plotted as a function of peptide concentration and fitted to a sigmoidal dose-response curve using Prism software 8.0 (GraphPad). The Kᵢ values were calculated according to Nikolovska-Coleska Z. et al.⁴⁰⁻⁴¹
B4 returned a Ki of 4.8 µM. Molecule B5 came in with a Ki of 1.01 µM. On the same count and under the same terms, for B6 the value was 4.29 µM; for B7, 3.6 µM.

The next experiment shares this target. Nature of the experiment: FP competition. The source holds these as a separate data set.
Protocol: (§2) Fluorescence polarization (FP). FP assays were performed in a 384-well plate format. Fluorescence polarization was measured using a Safire 2 plate reader. The instrument Z-factor was optimized for each assay. The G-factor was calibrated to an initial milli polarization value of 20. […] Every measurement was performed in NaPI 50 mM, 50 mM NaCl and 1% BSA at pH 7.2, 25° C. […] The curves were done in triplicates. […] The mili polarization (mP) values were plotted as a function of peptide concentration and fitted to a sigmoidal dose-response curve using Prism software 8.0 (GraphPad). The Kᵢ values were calculated according to Nikolovska-Coleska Z. et al.⁴⁰⁻⁴¹
For B8, the inhibitory constant (Ki) came to 2230 nM and the “Relative Ki (Ki mut/Ki WT)” value worked out at 1.49.

For the molecule B9, the affinity corresponds to a Ki of 1550 nM and the “Relative Ki (Ki mut/Ki WT)” value came to 1.03. On to B10, for which the affinity, expressed as Ki, was 17000 nM and the “Relative Ki (Ki mut/Ki WT)” value is 11.3.

The target is the same in the next experiment. Nature of the experiment: FP competition. The source holds these as a separate data set.
Protocol: as §2
Turning to B11, the Ki amounted to 690 nM. Still for that read-out and setting: with B12 the figure was 700 nM. For B13, the inhibition constant Ki came to 1430 nM. Compared with the last molecule, the Ki is about 2-fold higher. Molecule B14 registered an inhibitory constant (Ki) of 2650 nM.

With B15, the affinity, expressed as Ki, was 8990 nM. Molecule B16 had an inhibition constant (Ki) of 2290 nM.

The target is the same in a further experiment. Nature of the experiment: FP competition. The source holds these as a separate data set.
Protocol: as §1
B1 had an inhibition constant Ki of 480 nM. B2: the affinity, expressed as Ki, was 4800 nM. The same measure, in the same setting: with B17 the figure was 1120 nM; with B18, 4880 nM; with B19, 6190 nM.

With B20, the Ki came to 1470 nM. Consider B21, for which the Ki amounted to 620 nM.

As to B22, affinity was put at a Ki of 2200 nM. This Ki is about 3.5-fold higher than that of the molecule before. Turning to B23, the affinity corresponds to a Ki of 820 nM. As to B24, the inhibition constant Ki amounted to 1080 nM. Same read-out and setting: with B3 the figure was 580 nM; with B25, 990 nM. Same read-out and setting: for B26 the value was 6170 nM. As for B27, affinity was put at a Ki of 930 nM.

The target is the same in the next experiment. Nature of the experiment: FP competition. This is another data set of the same source.
Protocol: Fluorescence polarization (FP). FP assays were performed in a 384-well plate format. Fluorescence polarization was measured using a Safire 2 plate reader. The instrument Z-factor was optimized for each assay. The G-factor was calibrated to an initial milli polarization value of 20. […] Every measurement was performed in NaPI 50 mM, 50 mM NaCl and 1% BSA at pH 7.2, 25° C. […] The curves were done in triplicates. […] The mili polarization (mP) values were plotted as a function of peptide concentration and fitted to a sigmoidal dose-response curve using Prism software 8.0 (GraphPad).
Data was collected in triplicates and is presented as mean of Kᵢ values±SEM
In turn, B28 displayed an inhibition constant (Ki) of 2680 nM. The same measure, in the same setting: for B29 the value was 210 nM; for B30, 1150 nM. Same read-out and setting: for B31 the value was 2930 nM.
